The source of these data is the nanobody polyreactivity screen of Harvey et al. (2022).

The data set in a line: yeast display, Sf9 membrane polyspecificity reagent, FACS + sequencing; frameworks hold sequencing errors. A digest of the protocol:
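After 36–48 hours of galactose induction, yeast (Saccharomyces cerevisiae BJ5465) displaying a synthetic nanobody library were stained at 4 °C for 1 hour with 10% biotinylated, detergent-solubilized Sf9 membrane reagent. Streptavidin microbeads enriched the stained cells before FACS sorting into low and high (top ~1%) gates on anti-HA and streptavidin fluorescence. Each clone's polyreactivity label reflects its gate of origin.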
In the case of “QVQLQESGRRPGAAGGSPRMSCAASGNIFWVAVMGRYRQEPGQERELVASIGFGCTTYYADSVKCRFTISRDNAKNTVYLQMISLKPEDTAVYYCAAPHYDWGELDYWGQGTQVPVSS”, the “polyreactivity (PSR sort gate)” value is on record as “low polyreactivity”. As to “QVQLVESGGGLVQAGGSLRLSCAASGRIFGYYAMVCYRQAPGKERELVAAISSGGGSTYYADSVKGRFTISRDNAKNTVYLQMNSLKPEDTAVYYCIVAYRWSTRYDYWGQGTQVTVSS”, the “polyreactivity (PSR sort gate)” value was “high polyreactivity”. In the case of “QFQLVESGGGLVQAGGSLRLSCAASGLIFRHYVMGWYRQAPGKERELVAAITSRGGTTYYADSVKGRFTISRDNEKNTVYLQMNIMKPEDTAVYYCNAVDIDPTRYEYDYWGQVTQVTVSS”, the “polyreactivity (PSR sort gate)” value is recorded as “high polyreactivity”.

For “QVQHVESGGGLVQAGGSLRLSCAAYYAMGWYRQAPGKERELVAAISSTGRTNYADSVKGRFTISRDNAKNTVYLQMNSLKPEDTAVYYCNAGDPSGMDYWGQGTQVTVSS”, the “polyreactivity (PSR sort gate)” value was “low polyreactivity”. The result for “QVQLVESGGGLVQAGGSLRLSCAASGRIFVPYAMGWSRQAPGKERELVAAISWRGGSTNYADSVKGRFTISRDNAKNTVYLQMNSLKPEDTAVYYCAAVPVRYRYSYGYYYWGQGTQVTVSS” reads “high polyreactivity”.

Consider “QVQLVESGGGLVQAGGSLRLSCAASGVNAMGWYRQAPGKEREIVAAITSIGGSTYYADSVKGRFTISRDNAKNTVSLQMNSLKPEDTAVYYCNTDRGPVKVSPLYESWGQGTQVTVSS”, for which the “polyreactivity (PSR sort gate)” value is given as “low polyreactivity”. As to “QVQLVESGGGLVQAGGSLRLSCAASGSIFSINTMGWYRQAPGKERELVAAITRSGSGTYYADSVKGRFTISRDNAKNTVYLQMNSLKPEDTAVYYCAKSTAVKPYAYRESGFIYDYWGQGTQVTVSS”, the “polyreactivity (PSR sort gate)” value is “low polyreactivity”. Regarding “QVQLVESGGGLVQAGGSLRLSCVASGLTQPSAIGWYRHAPGKERELVPRISWRGASTYYADSVKGRFTISRDTAKNNFYLQINSLKPEDTAVYYCAARSTIQRRGYYGYRVGRSEYGYWGQGTQVTVSS”, the “polyreactivity (PSR sort gate)” value was “low polyreactivity”. As to “QVQLVESGGGLVQAGVSLRLSCAASGRTFRHNVMGRYRQAPGKERELVAAISYSGGSTHYADSVKGRFTISRDNAKNTVYLQMNSQKPEDTAVYYCNRYSYDSHFLYPFRGHDYWGQGTQVTVSS”, the “polyreactivity (PSR sort gate)” value is “low polyreactivity”. In the case of “QVQIVESGGGLVQAGGTLRLSCAPSGRTFAPNTMGWYRHAPGKEREFVARINSRGGSTYADSVKGRFTISRDNAKNTVYLQMNSLKPEDTAVYYCARKPYRGVYRYDYWGQGTQVTVSS”, the “polyreactivity (PSR sort gate)” value is reported as “high polyreactivity”. The entry for “QVQLVESGGGLVQAGGSLRLSCAASGSIFARYTMGWYRQAPGKERELVAAISTSGSRTYYADSVKGRFTISRDNAKNCVYLLMNSLKPEDTAVYYCNVAWIWGKYDYWGPGTQVTVSS” is “high polyreactivity”; for “QVQLVESGGGLVQAGGSLRLSCDASGSTFGANAMGWYRQAPGKEREFVAAISRSGVRTYYADSVKGRFTISRDNAKNTVYLQMNSLKPEDTAVYYCAADGYWWTYTRYDYWGQGTQVTVSS” it is “low polyreactivity”. As to “QVQLVESGGGLVQAGGSLRLSCAASGRIFATNAMGWDRPAPGKERELVATITRSAGRTYYADSVKGRFTISRDNAKNTVYFQMNSLKPEDTAVYYCAASYWDTEPGYREYDYWGQGTQVTVSS”, the “polyreactivity (PSR sort gate)” value is “low polyreactivity”. For the sequence “QVQLVESGGGLVQAGGSLRLSCAASGSTFGIYAMGWYRQAPGKERELVATITGRGGRTYYADSVKGRFTISRDNAKNTVYLQMNSLKQEDTAVYYCNAAYRGYYRYDYWGQGTQVTVSS”, the “polyreactivity (PSR sort gate)” value is recorded as “high polyreactivity”. As to “QVQLVESGGGLVQAGGSLRLSCAASGFIFPFYAMGWYRQAPGKERELVAGIRGVGSTNYADSVKGRFTISRDNAKNTVYLQMNSLKPEDTAVYYCNKELYDFKDRNLTAFLLRIFDSWGQGTQVTVSS”, the “polyreactivity (PSR sort gate)” value was “low polyreactivity”. “QVQLEESGGGLVQAGGSLRLSCAASGSTFYYYALGWYRQAPGKERELVATINKIVGITYYADSVKGRFTISRDNAKNTVYLQRNSLKPEDTAVYYCAVQDTSYDVQYSYGYWGQGTQVNVSS”: the “polyreactivity (PSR sort gate)” value is recorded as “low polyreactivity”.

For “QVQHVESGGGLVQAGGRLRLSCAASGRTFPRYAIGLYRQAPGKERELVAAISVLAGITYYADSVKGRFTISRDNAKNTVYLQMNSLKPEDTAVYYCAKDHWTTSYDEGDYWGQGPQVTVSS”, the “polyreactivity (PSR sort gate)” value is reported as “low polyreactivity”. With “QVQLVESGGGLVQAGGSLRLSCAASGSIFAVNAMGWYRQAPGKERELVASITSGGSTNYADSVKGRFTISRDNAKNTVYLQMNSLKPEDTAVYYCNADRVRAVSRYDYWGQGTQLTVSS”, the “polyreactivity (PSR sort gate)” value was “low polyreactivity”. For “QVQLVESGGGLVQAGGSLRISCAASGFIFRYYAMGWYRQAPGKERELVARITNGGSTKYSDSVKGRFTISRDNAKTTVYLQMNSLKPEDTAVYYCNTDGLVRNGPFFSWGQGTQVTVSS”, the “polyreactivity (PSR sort gate)” value is listed as “low polyreactivity”. Turning to “QVQLVESGGGLVQAGGSLRLSCAASGSTFYHNVRGWYRPAPGKERELVASIDTGDSTNYADSVKGRFTISRDNAKNTVYFQMNSLTPEDTAVYYCNADSYAALNKRGYDYWGQGTQVTVSS”, the “polyreactivity (PSR sort gate)” value was “low polyreactivity”.

Turning to “QVQLVESGGGLVQAGGSLRLSCAASGSTCDYNAMGWYRQAPGKERELVAAITSTGGNTYYADSVKGRFTISRDKAKNTVYLQMNSLKPADTAVYYCNKDVARYPYGKFDYWGQGTQVTVSS”, the “polyreactivity (PSR sort gate)” value is “low polyreactivity”. “HVQLQESGVGLVQAGGSLRLSCAASGTISQEYWMGWYRQAPGKEREFVAAIGLGSNTNYADSLKGRFTISRDNSTNTVFLQMNSLKPEDTAVYYCAVSVWQYSDHVYRGQGTQVTVSS”: the “polyreactivity (PSR sort gate)” value is “low polyreactivity”. The entry for “QVQLVESGGGLVQAGGSLRLSCAASGRTYRTYAMGWYRQAPGKEREFVAAITSSGGSTYYADSVKGRFTISRDNAKNTVDLEMNSLKPEDTAVYSCNAKRRYGPDKYDYWGQGTQVTVSS” is “high polyreactivity”; for “QVQLEDSGGGLVQAGGSLRLSCAASGSIFATNAMGWYRQGPGKERELVAAISRSGASTYYADSVKGRFTISRDNAKNTVYLQMNRLKPEDTAVYYCNKVLYRDAYHSYGFEYWGQGTQVTVSS” it is “high polyreactivity”; for “IIQAGGSLRLSCAASGGTFFVYMGWYRQAPGKERELVADISGFGGGTYYADSVKGRFTISRDNAKNTVYLQMNSLKPEYTAVYYCATVVPTGIIRMYWGQGTQVTVSS” it is “low polyreactivity”. On to “QVQLVESGGGLDQAGGSLRLSCAASGSIIYWYAKGWYRQAPGKERELVADISRGGITNYADSVKGRFTISRDNEKNTVYLQMNSLKPEDTAFYYCAKTHYGVQRLDSWGQGTQVTVSS”, for which the “polyreactivity (PSR sort gate)” value was “low polyreactivity”.

As to “QVQLVESAGGLVQAGGSLRLSCAASGRTFQYYALGWYRQAPGKERELVAAISWSGGSTYYADSVTGRFTISRDNAKNTVYLLMNSLKPEDSAVYYCAKTSSGRKFYWGQGTQVTVSS”, the “polyreactivity (PSR sort gate)” value is reported as “high polyreactivity”. “QVQLVDSGGGLVQAGGSLRLSCAASGRIFGYNAMGWSRQAPGKERELVAAITSDARTNYADSVKGRFTISRDNAKNTVYLQMISLKPEDTAVYYCAARRYPPRMDYWGHGTQVTVSS”: the “polyreactivity (PSR sort gate)” value is “high polyreactivity”.

Regarding “QVQLVESGGGLVQAGGSLRLSCAASGRIFYPNAMGWYRQAPGKERELVAVIRSRGGSTYYADSVKGRFTISRDNAKNTVYLQMNSLKPEDTAVYYCAARWVGRRTKYDYWGQGTQVTVSS”, the “polyreactivity (PSR sort gate)” value is on record as “high polyreactivity”. For the sequence “QVQLVESGGGLVQAGGSLRLSCAASGRIFYYNAMGWYRQAPGKERELVAAITKSSGSTYYADSVKGRFTISRDNAKNTVFLQMNSLKPEDTAVYYCAKDKYLVFGFVGGDYWGQGTQVTVSS”, the “polyreactivity (PSR sort gate)” value is recorded as “low polyreactivity”.

Take “QVQLVESGGGLVQAGGSLRLSCAASGSIFQKNAMGWYRQAPGKERELVATIRWSGGRTYYADSVKGRFTISRDNAKNTVYLQMNSLKPEDTAVYYCNAGYKGDYDYWGQGTQVTVSS”: the “polyreactivity (PSR sort gate)” value is “high polyreactivity”. Turning to “QVQLVESGGGLVQAGGSLRLSCAASGSTFRDNAMGWYRQAPGKERELVAAITVIDGTTYYADSVKGRFTISRDYAKNTVYLQMNSLKPEDTAVYYCADDTIWYEYYYWGQGTQVTVSS”, the “polyreactivity (PSR sort gate)” value was “low polyreactivity”. With “QVQLEEAVGGLLQAGGSLRFSCAASGGLFWVYAMGRYRQAPGKERELVAAISNSDTSTSYADSVKGRFTISRDNAQNTVYLQMNSLKAEDTAVYYCKADSPSLSGDSWGQGTQVNVSS”, the “polyreactivity (PSR sort gate)” value is given as “low polyreactivity”. The result for “QVQLVESGGGLVQAGGSLRLSCAASGSIFNKYAMGWYRQAPGKERELVAAISVSGTRTYYADSVKGRFTISRDNAKNTVYLQMNSLKPEDTAVYYCAAGGVGAYDYWGQGTQVTVSS” reads “high polyreactivity”.

As for “QVQLVESGGGLVQAGGSLRLSCAASGSIFSSNAMGWYRQAPGKERELVASIDGGPTTYADSVKGRFTISRDNAKNTVYLQMNSLKPEDTAVYFCKAVYAFNGYDYWGQGTQVTVSS”, the “polyreactivity (PSR sort gate)” value is reported as “low polyreactivity”. Regarding “QVQLVESGGGLVQAGGSLPLSCAASGSIFFFNAMGWYRQATGKEREFVAAITSSSGRTYYADSVKGRFTISRDNANNTVYLQMNSLKPEDSAVYFCAAQVPEDTETVDYWGQGTQVTVSS”, the “polyreactivity (PSR sort gate)” value is given as “low polyreactivity”. The entry for “QVQLVESGGGLVQAGGSLRLSCAASGSTFRGYAMGWNRPAPGKETELVAGITKRGGSTYYADSVKGRFTISRDNAKNTVYLQMNSLKPEDTAVYYCAAGKHRQAYEHDYWGQGTQVTVSS” is “high polyreactivity”; for “QVQLVESGGGLVQAGGSLRLSCAASGSTIEPNSMGWYRQAPGKEREFVAAITTRGGSTFYADSVKGRFTISRDNAKNTVYLQMNSLKPEDTAVYYCAADYYFVDYDYWGQGTQVTVSS” it is “low polyreactivity”. Consider “HVQLGESGGGLVQAGGSLRLSCAASGFIFDVYAMGWYRQAPGKERELVAAISSSGGRTYYADSVKGRFTISRDNAKNTVYLQMNSLKPEDTAVYYCAAKTHSRTKVYTADYWGQGTQVTVSS”, for which the “polyreactivity (PSR sort gate)” value is “high polyreactivity”. Regarding “QVQLVESGGGLVQAGGSHRLSCAASGIIFYDNTMGWYRQAPGKERELVASITWRGGSTYYADSVKGRFTISRDNAKNTFYLQMNSLKPEDTAVYYCNADSSDDYDYWGQGTQVTVSS”, the “polyreactivity (PSR sort gate)” value was “low polyreactivity”. On to “QVQLVESCGGFVQAGGSLSLSCAASGSIYGRYGMGWYIQAPGKERELVAAITSGTRTNYADSVKGRFTISRDNAKNTVYLQMKSLKPEDTAVYYCYALRLRGNYEYGYWGQGTQVTVSS”, for which the “polyreactivity (PSR sort gate)” value is listed as “low polyreactivity”.
